The text below walks through data of paper PMC3737524, “The role of the C-terminal helix of U1A protein in the interaction with U1hpII RNA”.

In general, Kd refers to the free concentration of one partner at which half of the binding sites on the other are occupied at equilibrium, for simple one-to-one binding.

Common to all, as to conditions: protein: recombinant; tags: N-terminal His6; label: 5' biotin; hairpin
Series [1] has as its target U1A Asp92Glu (UniProt P09012 1-101, D92E). Nature of the series: SPR; ka 4e7 M-1s-1; kd 9e-4 s-1; Biacore 2000 SPR; running buffer with 125 ug/ml yeast tRNA and 62.5 ug/ml acetylated BSA; buffer, salt, pH and temperature as previously described (not given in material). Background: Surface plasmon resonance follows binding to a sensor surface in real time, without labels.

For series [2], the target named is U1A90 (UniProt P09012 1-90). The experiment in a line: SPR; ka 2.3e8 M-1s-1; kd 1.0 s-1; Biacore 2000 SPR; running buffer with 125 ug/ml yeast tRNA and 62.5 ug/ml acetylated BSA; buffer, salt, pH and temperature as previously described (not given in material).
For series [3], the target named is U1A Ile94Pro (UniProt P09012 1-101, I94P). Nature of the series: SPR; ka 1.2e8 M-1s-1; kd 6e-2 s-1; Biacore 2000 SPR; running buffer with 125 ug/ml yeast tRNA and 62.5 ug/ml acetylated BSA; buffer, salt, pH and temperature as previously described (not given in material).
In series [4] the target is U1A Asp92Phe (UniProt P09012 1-101, D92F). The experiment in a line: SPR; ka 6e7 M-1s-1; kd 1.0e-3 s-1; Biacore 2000 SPR; running buffer with 125 ug/ml yeast tRNA and 62.5 ug/ml acetylated BSA; buffer, salt, pH and temperature as previously described (not given in material).
The target in series [5] is U1A95 (UniProt P09012 1-95). The experiment in a line: SPR; ka 2.3e7 M-1s-1; kd 1.8e-2 s-1; Biacore 2000 SPR; running buffer with 125 ug/ml yeast tRNA and 62.5 ug/ml acetylated BSA; buffer, salt, pH and temperature as previously described (not given in material).
Series [6] deals with U1A Asp92Ala (UniProt P09012 1-101, D92A). Nature of the series: SPR; ka 3.3e7 M-1s-1; kd 1.1e-3 s-1; Biacore 2000 SPR; running buffer with 125 ug/ml yeast tRNA and 62.5 ug/ml acetylated BSA; buffer, salt, pH and temperature as previously described (not given in material).
In series [7] the target is U1A Thr11Ala (UniProt P09012 1-101, T11A). The experiment in a line: SPR; ka 7.1e7 M-1s-1; kd 1.5e-2 s-1; Biacore 2000 SPR; running buffer with 125 ug/ml yeast tRNA and 62.5 ug/ml acetylated BSA; buffer, salt, pH and temperature as previously described (not given in material).
U1A Thr11Ala, sequence (P09012 1-101 T11A): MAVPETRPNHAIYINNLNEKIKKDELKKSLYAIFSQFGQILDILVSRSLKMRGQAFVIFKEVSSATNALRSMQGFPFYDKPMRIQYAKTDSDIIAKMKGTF

U1A Asp92Phe, sequence (P09012 1-101 D92F): as the sequence (P09012 1-101 T11A) above, with A11T, D92F counted along it
U1A Asp92Glu, sequence (P09012 1-101 D92E): as the sequence (P09012 1-101 T11A) above, with A11T, D92E counted along it
U1A Ile94Pro, sequence (P09012 1-101 I94P): as the sequence (P09012 1-101 T11A) above, with A11T, I94P counted along it
U1A90, sequence (P09012 1-90): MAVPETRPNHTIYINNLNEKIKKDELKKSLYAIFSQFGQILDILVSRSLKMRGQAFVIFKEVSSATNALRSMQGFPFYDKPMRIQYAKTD
U1A95, sequence (P09012 1-95): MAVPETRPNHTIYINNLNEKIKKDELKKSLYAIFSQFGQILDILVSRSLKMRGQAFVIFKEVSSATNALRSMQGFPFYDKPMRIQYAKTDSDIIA
U1A Asp92Ala, sequence (P09012 1-101 D92A): as the sequence (P09012 1-101 T11A) above, with A11T, D92A counted along it

Consider AGCUUAUCCAUUGCACUCCGGAUGAGCU (structured_RNA) [U1hpII], for which the Kd in series [1] stood at 20 pM; in series [2], 4500 pM; in series [3], 500 pM; in series [4], 20 pM; in series [5], 820 pM; in series [6] it was 41 pM. Besides, in series [7], the dissociation constant (Kd) stood at 210 pM.
